Test results as given in the supplement of paper PMC12042874.
± gives the uncertainty stated by the source.

Assay: amyloid nucleation score (Sup35N fusion, yeast selection) (log enrichment); library NNK3; higher = more nucleation; inactive = no reads after selection
How it was run: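 The nucleation score equals the log enrichment of output over input reads from DiMSum, centred on the mode score of non-aggregating sequences. It was computed only for sequences with 100 or more input reads. The reads came from Illumina sequencing of plasmid inserts from psi-negative yeast expressing Sup35N fused to peptides of 20 random codons, induced with 100 μM copper sulfate for 24 hours and grown 7 days at 30°C without adenine and uracil.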

SASVGFGHSSWNPIIGMIRI
amyloid nucleation score: inactive

YIASNAWETWRRDRSYRKRL
amyloid nucleation score: inactive

ELCVRQLCY
amyloid nucleation score: inactive

SIFAVSGLSVF
amyloid nucleation score: inactive

PAVPLQSNLRRETTFRAGCL
amyloid nucleation score: inactive

LWRTGRALWAMNWKAYIQFK
amyloid nucleation score: inactive

PMYTMRVWLMMSS
amyloid nucleation score: inactive

YWSNSYGIECCRLVQQAPTE
amyloid nucleation score: -0.132 ± 0.33

FYLKLMSLVMSMDIMLTSLC
amyloid nucleation score: inactive

YSIIVVL
amyloid nucleation score: 1.39 ± 0.087

YLDLFLWIREMLYYTGSLRV
amyloid nucleation score: inactive

LVMINCCHVFRKARSTAERQ
amyloid nucleation score: 2.44 ± 0.071

CNLVVYCMSDNDV
amyloid nucleation score: 2.33 ± 0.049

GNFKCELVSALSDNIICPYM
amyloid nucleation score: inactive

TIMCNIWLGFRT
amyloid nucleation score: 2.01 ± 0.096

GNYVRIETS
amyloid nucleation score: inactive

WGTFIKSFQRLVKMVLLSMP
amyloid nucleation score: inactive

FKVWCVLSADIQF
amyloid nucleation score: inactive

STLRWLR
amyloid nucleation score: inactive

SPQGTVCNQSIFVALPLRVG
amyloid nucleation score: inactive

IMVKLSIIIVYC
amyloid nucleation score: 1.76 ± 0.083

IDLRC
amyloid nucleation score: inactive

NDFLCI
amyloid nucleation score: inactive

FQVEKQF
amyloid nucleation score: inactive

CLVVKLFHTSSCMNSYMRGG
amyloid nucleation score: 1.67 ± 0.11

HMQTGDDRLMQAAYMHLEHI
amyloid nucleation score: inactive

MCQNLRMYMIYHRQGKWMKS
amyloid nucleation score: inactive

RWRFRRWVS
amyloid nucleation score: inactive

SRNPYLYQIHVYKVTGFLCC
amyloid nucleation score: 2.51 ± 0.062

NNNISFEEWFPS
amyloid nucleation score: inactive

FIDNRGSDSSTICCYNYAAQ
amyloid nucleation score: 0.407 ± 0.61

CRSGCQ
amyloid nucleation score: inactive

SYINHTIPRVLWAITLRYLI
amyloid nucleation score: inactive

NSCQGE
amyloid nucleation score: inactive

GVGVMLSYKGIFMHLSFVGE
amyloid nucleation score: inactive

LASNFVGASIPPRRACGCRA
amyloid nucleation score: inactive

LINVPDGSSSKLSDMV
amyloid nucleation score: inactive

VFTFFSMCMTPSYYPCRLAC
amyloid nucleation score: inactive

GTLDNDRVIVWSDLDFSCFR
amyloid nucleation score: inactive

STIQSHCYKVVGV
amyloid nucleation score: inactive

LGKRVGCNCICAPRSAGDGI
amyloid nucleation score: inactive

MQFEINRRVGHRSPNAYLE
amyloid nucleation score: inactive

TVVMWSSKDREVDSIDMSFV
amyloid nucleation score: inactive

SWISR
amyloid nucleation score: inactive

SLWSVEDSGYKC
amyloid nucleation score: inactive

VTHCSVFHLGNTWLVQLWWY
amyloid nucleation score: -0.513 ± 1.3

YSCLRLYATNHVTLWICELK
amyloid nucleation score: inactive

IADFNSL
amyloid nucleation score: inactive

YSFSRY
amyloid nucleation score: inactive

DAWDDNYNASRIGFAYMYSI
amyloid nucleation score: inactive

CCWYPYEYIINYASVTSQFP
amyloid nucleation score: 1.56 ± 0.066

SYDNWWCVILMRNQGRCAWG
amyloid nucleation score: inactive

FKPWLYFGRPMAQLRDDCQV
amyloid nucleation score: inactive

FSVDYQHRCQGQYPYIWYSN
amyloid nucleation score: inactive

KFSCINVDPMHYSNSWTT
amyloid nucleation score: inactive

FFYWSWVQPEPY
amyloid nucleation score: inactive

PVHGSKGPSGHVCRQCGFLM
amyloid nucleation score: inactive

RCVQCEAYFCLFDKPDVDDT
amyloid nucleation score: 3.05 ± 0.053

PTELYFHPDI
amyloid nucleation score: inactive

LERYRFKRNMSVIELHNKVM
amyloid nucleation score: inactive

CTFFGKLLSCFVYSGMVQ
amyloid nucleation score: inactive

NHLMTFLVWWLMIALLPHLD
amyloid nucleation score: inactive

VYINVNDVALKHRFLKPV
amyloid nucleation score: inactive

NSFSRINKDIISSNSVG
amyloid nucleation score: inactive

IYAPRR
amyloid nucleation score: inactive

FRRSVK
amyloid nucleation score: inactive

YAEPYRRDVPGSCEYLTMM
amyloid nucleation score: inactive

RKLWLMCYS
amyloid nucleation score: inactive

VCKVTFMCAFRHDYSKRYYG
amyloid nucleation score: 0.35 ± 0.48

CSIGRSTVDVRWGEGLWNRL
amyloid nucleation score: inactive

EDVSSNIRWRHTGKGETVVM
amyloid nucleation score: inactive

GAHFWKNGVGRWLPRNC
amyloid nucleation score: inactive

TQESRDIGFTAPRGRICTQG
amyloid nucleation score: inactive

DVAWHRSACEYLFM
amyloid nucleation score: inactive

GSICYHGWTFKGKVKILNGI
amyloid nucleation score: inactive

HSFIDERWSLYYERVLVYTG
amyloid nucleation score: inactive

SKCIKLFNFNVSCFQTSSLL
amyloid nucleation score: 2.29 ± 0.092

DVLRVPMNEVTNWSIPPY
amyloid nucleation score: inactive

WLHTCRGSMDW
amyloid nucleation score: inactive

YMVWMLNQDRSACGINIMSI
amyloid nucleation score: 1.33 ± 0.12

GLCHMFGYDFTSMNCSSPGA
amyloid nucleation score: inactive

PRSVLINLLHRTHVCCRLFS
amyloid nucleation score: inactive

NTMLKSVMVFWRMLDFRFRL
amyloid nucleation score: inactive

RIVGRLVSRALWWV
amyloid nucleation score: inactive

CLPSVRQKGSWRLR
amyloid nucleation score: -0.338 ± 0.82

VLANGKTSELRELKVHLLAG
amyloid nucleation score: -0.274 ± 1.1

GAYSDMTNKIWVPDNLLLL
amyloid nucleation score: inactive

EMNLLFIVDAIELCPVLQAR
amyloid nucleation score: inactive

IQFLTNKQALLEKFPGKSPW
amyloid nucleation score: inactive

SWRAVRRALLGRCNGSRVLV
amyloid nucleation score: inactive

DYVPIKFYRYYEILNVCRVV
amyloid nucleation score: inactive

TCEWQRTCNPVGMSYKWSRG
amyloid nucleation score: inactive

FFVYVEHRCSYNGRTSDIFY
amyloid nucleation score: -0.185 ± 0.51

IAHWAWGMELIIYQIPNHFR
amyloid nucleation score: 0.407 ± 0.25

YPWVYLAGYFHFFDELVGIF
amyloid nucleation score: inactive

VDNCIWLFLSTFYDGCVVML
amyloid nucleation score: inactive

LQSNFRSPTISGFTTEKVGK
amyloid nucleation score: inactive

TRRSKGQFIYCPSNGMKCSG
amyloid nucleation score: inactive

VGDVKAISVGCVGVLEFSAA
amyloid nucleation score: inactive

NLLRNAVFIYCKHLNLFDAM
amyloid nucleation score: 0.815 ± 0.12

WFDFHA
amyloid nucleation score: 0.9 ± 0.25

SLMYKWKEGSQDGYCWAW
amyloid nucleation score: 0.824 ± 0.28

MLTFLVYSCGTGWVCPLLRK
amyloid nucleation score: inactive

SSTHIWGVQALGS
amyloid nucleation score: inactive

CLTYHSCIFRVHLFTISINV
amyloid nucleation score: inactive

IYSMYQCLFVEHFS
amyloid nucleation score: inactive

YFVCVEEVRKYMEPSELGVR
amyloid nucleation score: inactive

QLLQVWVNMFKTTAISWIVF
amyloid nucleation score: inactive

SLEVLIYDGKCMSCDDVVNG
amyloid nucleation score: inactive

GVCKWFCESIDMTLRAVWAN
amyloid nucleation score: inactive

LFKKVDTWSYLHGDTMLRGI
amyloid nucleation score: inactive

KRYSIMFSKASQ
amyloid nucleation score: 0.986 ± 0.15

WSMCKLKDFFTGRGVYRFIS
amyloid nucleation score: inactive

RIQCIRLDHFSLSLFYFFTA
amyloid nucleation score: 0.636 ± 0.21

DSSKV
amyloid nucleation score: inactive

YVIGDVIIFPSSFMINCLYC
amyloid nucleation score: 2.4 ± 0.081

LWSYITK
amyloid nucleation score: inactive

VLLSNNRILYETFL
amyloid nucleation score: inactive
